Data on four molecules can be found in article doi:10.1101/2020.06.18.158576 (bioRxiv, 2020).

The target in one assay is T1, KaiC (Synechococcus elongatus, UniProt Q79PF4 1-519).
T1 sequence: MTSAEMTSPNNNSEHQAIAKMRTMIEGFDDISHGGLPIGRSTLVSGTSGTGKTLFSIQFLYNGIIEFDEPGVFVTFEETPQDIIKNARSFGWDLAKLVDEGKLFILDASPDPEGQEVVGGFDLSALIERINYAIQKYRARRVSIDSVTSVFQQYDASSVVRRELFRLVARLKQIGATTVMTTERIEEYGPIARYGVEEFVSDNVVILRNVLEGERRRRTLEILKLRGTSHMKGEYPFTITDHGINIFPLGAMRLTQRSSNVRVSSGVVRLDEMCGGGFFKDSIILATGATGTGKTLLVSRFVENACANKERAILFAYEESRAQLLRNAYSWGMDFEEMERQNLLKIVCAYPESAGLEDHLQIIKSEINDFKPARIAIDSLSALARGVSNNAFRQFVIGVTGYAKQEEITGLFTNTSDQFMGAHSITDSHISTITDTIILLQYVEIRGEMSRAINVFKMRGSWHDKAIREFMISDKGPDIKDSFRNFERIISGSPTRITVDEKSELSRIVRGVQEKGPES
The assay is described as follows: fluorescence polarisation.

The next assay has as its target T2, SasA (unlabeled) (Synechococcus elongatus, UniProt Q06904 1-387).
T2 sequence: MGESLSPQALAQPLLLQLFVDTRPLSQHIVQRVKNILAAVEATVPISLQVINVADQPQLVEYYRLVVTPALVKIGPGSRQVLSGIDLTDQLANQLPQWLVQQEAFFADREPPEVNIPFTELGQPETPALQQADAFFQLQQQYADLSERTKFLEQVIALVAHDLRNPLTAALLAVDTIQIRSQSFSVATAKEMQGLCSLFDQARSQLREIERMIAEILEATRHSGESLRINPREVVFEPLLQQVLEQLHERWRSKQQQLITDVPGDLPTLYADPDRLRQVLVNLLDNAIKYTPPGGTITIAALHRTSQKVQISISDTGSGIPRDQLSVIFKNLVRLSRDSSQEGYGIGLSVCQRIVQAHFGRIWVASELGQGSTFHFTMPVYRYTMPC
The assay is described as follows: fluorescence polarisation.

B1: SasA, fluorescently labeled probe (enzyme)
chain: MGESLSPQALAQPLLLQLFVDTRPLSQHIVQRVKNILAAVEATVPISLQVINVADQPQLVEYYRLVVTPALVKIGPGSRQVLSGIDLTDQLANQLPQWLVQQEAFFADREPPEVNIPFTELGQPETPALQQADAFFQLQQQYADLSERTKFLEQVIALVAHDLRNPLTAALLAVDTIQIRSQSFSVATAKEMQGLCSLFDQARSQLREIERMIAEILEATRHSGESLRINPREVVFEPLLQQVLEQLHERWRSKQQQLITDVPGDLPTLYADPDRLRQVLVNLLDNAIKYTPPGGTITIAALHRTSQKVQISISDTGSGIPRDQLSVIFKNLVRLSRDSSQEGYGIGLSVCQRIVQAHFGRIWVASELGQGSTFHFTMPVYRYTMPC
modifications: fluorescently labeled using sortase-mediated ligation
For B1, the binding result with KaiC was “binds”.

B2: RpaA R121Q mutant (natural protein)
chain: MKPRILVIDDDSAILELVAVNLEMSGYDVRKAEDGIKGQALAVQLVPDLIMLDLMLPRVDGFTVCQRLRRDERTAEIPVLMLTALGQTQDKVEGFNAGADDYLTKPFEVEEMLARVRALLQRTDRIPHAARHSEILSYGPLTLIPERFEAIWFNRTVKLTHLEFELLHCLLQRHGQTVAPSEILKEVWGYDPDDDIETIRVHIRHLRTKLEPDPRHPRYIKTVYGAGYCLELPAETELHQHADQFPSAS
Turning to B2, the binding result with SasA (unlabeled) is given as “binds”.

B3: RpaA, fluorescently labeled probe (natural protein)
chain: MKPRILVIDDDSAILELVAVNLEMSGYDVRKAEDGIKGQALAVQLVPDLIMLDLMLPRVDGFTVCQRLRRDERTAEIPVLMLTALGQTQDKVEGFNAGADDYLTKPFEVEEMLARVRALLRRTDRIPHAARHSEILSYGPLTLIPERFEAIWFNRTVKLTHLEFELLHCLLQRHGQTVAPSEILKEVWGYDPDDDIETIRVHIRHLRTKLEPDPRHPRYIKTVYGAGYCLELPAETELHQHADQFPSAS
modifications: fluorescently labeled using sortase-mediated ligation
Take B3: in the assay with SasA (unlabeled), the binding result was “binds”.

B4: KaiA, fluorescently labeled probe (natural protein)
chain: MLSQIAICIWVESTAILQDCQRALSADRYQLQVCESGEMLLEYAQTHRDQIDCLILVAANPSFRAVVQQLCFEGVVVPAIVVGDRDSEDPDEPAKEQLYHSAELHLGIHQLEQLPYQVDAALAEFLRLAPVETMADHIMLMGANHDPELSSQQRDLAQRLQERLGYLGVYYKRDPDRFLRNLPAYESQKLHQAMQTSYREIVLSYFSPNSNLNQSIDNFVNMAFFADVPVTKVVEIHMELMDEFAKKLRVEGRSEDILLDYRLTLIDVIAHLCEMYRRSIPRET
modifications: fluorescently labeled using sortase-mediated ligation
B4: the binding result with KaiC is listed as “binds”.
